Data: the supplement of paper PMC12042874
± gives the uncertainty stated by the source.

Assay: amyloid nucleation score (Sup35N fusion, yeast selection) (log enrichment); library NNK1; higher = more nucleation; inactive = no reads after selection
Summary of the method: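 On medium lacking adenine and uracil, psi-negative yeast expressing peptides of 20 random codons fused to Sup35N were grown 7 days at 30°C after a 24-hour induction with 100 μM copper sulfate. Illumina sequencing of input and output plasmid inserts gave the reads, and sequences under 100 input reads were excluded. The nucleation score is the DiMSum log enrichment of output over input reads, centred on the mode score of non-aggregating sequences.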

Row | Substance | amyloid nucleation score
1 | CLTIGCWRFSF | 4.57 ± 0.093
2 | GMQIKYNLCSRKTLVENGIS | 3.48 ± 0.12
3 | DILEIWL | -0.481 ± 0.4
4 | CEKTWNLRDCSGLLQVTRG | 0.099 ± 0.29
5 | LAWLQCRAGETFITWRHQFY | 0.544 ± 0.55
6 | MRSFAFWNYVFGRGMFPVFW | -0.272 ± 0.41
7 | SLYKMVMCNGYSCLLLYLVC | 0.353 ± 0.97
8 | SCNDTI | -0.172 ± 1.5
9 | LSGPLNGEDFHRIFQVDFRW | 0.244 ± 0.79
10 | RKIEWTVSLRGGRKCYFSGE | -0.012 ± 0.3
11 | CRMGFNQLWLKLRNRCVGLG | -0.008 ± 0.36
12 | LDTDFSPCRTAVLVAIMHRG | 0.415 ± 0.74
13 | QTMVTLGSKLIYDESGIVMV | inactive
14 | TSAVQIVTLQLVLSWMRYHM | 1.02 ± 0.28
15 | CMTPS | inactive
16 | KLTCRDSRFVRAIFVMSKSA | -0.458 ± 0.3
17 | YDLTSFGFSVIVCSDDTRSG | -0.043 ± 0.75
18 | SWASLIC | -0.838 ± 0.89
19 | FQLRNL | 0.414 ± 0.34
20 | TGDLGRTGKVTLGTLEDSKI | -0.694 ± 0.56
21 | KLSDSSLTKCRYSHFYRSSM | -1.99 ± 2.4
22 | MSNRISLQQLDRCQDDFMA | 0.034 ± 0.38
23 | PLYGASDK | -0.277 ± 0.97
24 | LSSAGYQFMFLSSFLGWEVN | -0.492 ± 0.44
25 | PLRNGWFLRKLRS | -1.35 ± 1.3

Row | Substance | amyloid nucleation score
26 | YPYTSLRQGRDTRNREGLQC | 0.301 ± 0.61
27 | VNSKFMGKY | 0.192 ± 0.39
28 | DMYYNQTRVQKPPVMPQSLK | -0.667 ± 0.78
29 | SGTDLRISNHAT | inactive
30 | TSHAVFNTVINLVVFVDQHC | 8.111 ± 0.055
31 | NIGIRI | 0.095 ± 0.39
32 | YSTYLSS | 1.4 ± 0.66
33 | QFRCFHLL | -0.026 ± 1.2
34 | TSRSSVFRVAFHCGGSDSLV | 0.039 ± 0.43
35 | QYSCGSYYLERSGNVSRRKS | -0.084 ± 1.6
36 | LVLIRKLVWGSGSDTLWVRR | inactive
37 | LYNLGHDSVGDLSFFCLRGW | -0.427 ± 0.36
38 | MFSNILHAHLRAWA | 0.53 ± 0.27
39 | LSYRCVVYSVMIWSDIRALV | 0.655 ± 0.3
40 | KIVCLKFYVIDMRSMLTVVS | 2.54 ± 0.088
41 | TIWVEKLWDIYI | inactive
42 | GCSIEFFDYGGY | -0.183 ± 0.74
43 | SGFAVLKIVMAFHLTLEHQF | 0.479 ± 0.67
44 | CCRSRLLIITRTVSTAGDSR | -0.54 ± 1.3
45 | IHKAKISWFLCYMLDDT | 0.097 ± 0.33
46 | DWHGLTKVMITW | 3.31 ± 0.11
47 | YIDKG | -0.893 ± 1.9
48 | CAAGARSSGEMAYIARMKAG | 0.482 ± 0.69
49 | VYYYVNTVCWSARFHVGSGR | -0.561 ± 0.74
50 | RRIRFNIRFTTCL | 0.802 ± 0.74

Row | Substance | amyloid nucleation score
51 | FAESSVVSFHLCRQMFASTA | -0.88 ± 0.52
52 | IVFDSLRGCSF | inactive
53 | IINMGTYRSTMLNILLKEKC | 2.88 ± 0.27
54 | IFYLRFPVLLVISPRCALYI | 0.623 ± 0.75
55 | NSCWVEKSNTV | 0.043 ± 0.62
56 | TKPMIMSTFSEFCIPCTMRL | 0.182 ± 0.55
57 | FCLIFDGC | inactive
58 | MVLRHRKCLSAFPWAFHAPY | 1.49 ± 0.85
59 | SRKVLTPVSPVSVRAARVGH | -0.979 ± 1.9
60 | LDCAKTVVTGVVLGRQLCQN | 0.662 ± 0.39
61 | LVCSGKWFVKSARLQ | 0.962 ± 0.14
62 | TNSPKKGMNGYGFNATVWTS | 0.413 ± 0.9
63 | PSLASCSRL | 0.28 ± 0.41
64 | WREGDI | -0.294 ± 1.2
65 | LTGYTAS | 0.295 ± 0.37
66 | YFGLRSVKRWQT | -0.106 ± 0.52
67 | QGKKPGGFQNEDMVVVLKWR | -0.601 ± 0.46
68 | ANTPRFMNTLV | -0.824 ± 0.51
69 | LFVLLQHLAATFYVQVLTSR | -0.028 ± 0.89
70 | DFARNQDGSFVWN | -0.575 ± 0.36
71 | GDSVESQILLVVGCIY | -0.416 ± 1.2
72 | SCKCLTSTGGGSGDRKGWNG | 0.916 ± 0.55
73 | WQLYIEYFE | 0.128 ± 0.36
74 | YKDIMHHVN | inactive
75 | SCRTLANITLCPRSIQF | 0.055 ± 0.65

Row | Substance | amyloid nucleation score
76 | GLLIGDT | 0.437 ± 0.48
77 | LLCYMRGYPSCL | 0.512 ± 0.36
78 | LWKGATRCHKVLRMLENDND | -0.606 ± 0.9
79 | DDRTKLQLSMRWEQQIMRHR | 3.48 ± 0.12
80 | VSGAKLAFN | -0.46 ± 1.6
81 | KKMRGTFIRFIYRLFFLRYA | 0.656 ± 0.5
82 | NLSVY | -0.232 ± 0.74
83 | KKGLLIVVVAHSERYVVDIA | -0.547 ± 0.44
84 | RIYRHIIVTGDNII | 2.57 ± 0.56
85 | LLWTSNIIYMSFAVRNKSVR | 0.59 ± 0.32
86 | KTRLSWYWKITCLLHSMKFS | -0.12 ± 0.4
87 | FFLTDITTLHYQSRNRLFLT | -0.581 ± 0.23
88 | ILCTIFHRTCFLRFRILEHF | inactive
89 | MPVFSFLWPMKDMPHKVLS | 0.364 ± 0.36
90 | TRTNELF | 0.498 ± 0.33
91 | NICDFLIYVYYLRSVCDI | -0.358 ± 0.41
92 | IEGMCGDMVMTYYIFLDSCG | 1.07 ± 0.36
93 | SLFHLNFTIRWVDHAADSLV | 1.98 ± 0.56
94 | TTSRAWFYL | -0.353 ± 1
95 | SAQSTILICLHKGLDMSERH | 5.8 ± 0.077
96 | VILRIIILYCLYHVWISGM | 0.177 ± 0.34
97 | ASFQFSSCMCSLYAVFSRLL | 0.759 ± 0.44
98 | TMFLVSRDFRGIVLYWITTF | -0.364 ± 0.78
99 | VGVHRHSSWWEFAYCASRQ | -0.537 ± 0.71
100 | FDLWLVYVRLPGSHDLDLRA | 0.61 ± 0.65

Row | Substance | amyloid nucleation score
101 | GRSLY | -0.413 ± 0.46
102 | SNSFALALLPGGT | 0.275 ± 0.75
103 | ISAKH | -0.89 ± 0.65
104 | YDHGRWDSTVSGLRDVMLDV | inactive
105 | RYGVGLCAYMFFSCVDFRSG | 1.65 ± 0.4
106 | NGSVTNNKNHPFVDYGVRHE | -0.468 ± 0.36
107 | CRYTMGSNKVALFYGWMHPG | 0.726 ± 0.66
108 | NWVLGVAYRRLRHKCSMYRV | 0.387 ± 0.67
109 | HVMRSSGRHGRRRLT | -0.631 ± 1.1
110 | LVNNSSCYHCQRLGQLEVNK | 0.215 ± 0.33
111 | YKATRRRQLLSPVIGEDQIG | 0.208 ± 0.32
112 | LLSVF | 0.484 ± 0.74
113 | SITADLGHNSVALGVALLVI | -0.057 ± 1.7
114 | WTVMVNICLGHCRVLSQLVP | 1.79 ± 0.24
115 | AILVGMFYAKTVGGQYRVHG | 0.369 ± 0.61
116 | TDSCYHCNLYMYHSS | 0.723 ± 0.9
117 | SALYNAGCKLCLFTS | 0.004 ± 1.1
118 | WIVHCVEFALYGLGF | 1.33 ± 0.79
119 | NWGVIVMFTYYRSSSGNLAC | 1.35 ± 0.45
120 | SSKCDLIDCSSD | inactive
121 | ATNSEAARYLS | 0.996 ± 0.62
122 | YFISVVFASGKGW | -0.387 ± 0.8
123 | LAWLFYGFEIKL | 0.241 ± 0.9
124 | WTSSVFSIAHPVRYVRFYAV | 0.307 ± 0.54
125 | GRIYLVWVDSTCRRVCKTLV | 0.082 ± 0.29

Row | Substance | amyloid nucleation score
126 | TMYWITQKVEKSSHMVCRVT | 2.61 ± 0.078
127 | KTYRAIQLSYRIPMKMFRFD | -0.3 ± 0.25
128 | SFAVCGKLDHWCPCSAITLV | 1.08 ± 0.64
129 | FTCLVNSNSPL | 0.606 ± 0.71
130 | YFSFIWMYKMDIMTI | -0.117 ± 0.35
131 | VRRIAWSNGWCRGIGGRSVL | -0.179 ± 0.39
132 | LIVVSLGKMKLGYYFKFNVL | 0.286 ± 0.22
133 | RICLLRRGVCTHNVDMVVMY | -0.873 ± 0.68
134 | SDGWCRLRCES | -0.429 ± 0.59
135 | LVIHCDQTHIKVQRDVPRRW | 2.98 ± 0.15
136 | IELDYYIINIVWPPAGNYRH | 6.734 ± 0.062
137 | LEHHCAHCIGEVTINIKRFP | 0.306 ± 0.41
138 | VLWPLTISLWC | -0.236 ± 0.51
139 | RMMLVV | -0.181 ± 0.37
140 | RSDWFHMCNNT | 2.38 ± 0.089
141 | SLIRIVSS | 0.372 ± 0.52
142 | QYFKNDVKYVPFG | -0.514 ± 1.1
143 | HALMTARAFTCPWRMVVKFQ | 0.897 ± 0.61
144 | YSDCDGTMCYVDAYMCGYMA | 3.46 ± 0.077
145 | VYSYYLLLGLW | 3.66 ± 0.084
146 | VFNHTVPQSIRFYTYNRSSR | 3.87 ± 0.078
147 | GLVVIGRSCDDYESIMTRSM | 0.171 ± 0.41
148 | CTIRYWF | 1.5 ± 0.42
149 | LVFTNTLSTIFNNLHCYMWE | 4.49 ± 0.12
150 | VIHRIIDVLF | -0.06 ± 0.57

Row | Substance | amyloid nucleation score
151 | ENQPVPLQDLKGAV | -0.352 ± 1.2
152 | YFVLALWFIGCYECLYLWLC | 1.21 ± 0.59
153 | PGVPPPKRA | 0.294 ± 0.66
154 | FDADGHPLKTPLCMGLSCGG | -0.129 ± 1.6
155 | ANFGFWFAFYSAARSDRTSL | -0.421 ± 1.2
156 | IIASGHDFL | -0.732 ± 0.87
157 | GSIERFTFISVYYRLTPLSG | -0.035 ± 0.54
158 | YFIARREQFWIMLPGELALE | -0.756 ± 1.7
159 | VCYAKTAVFSMCGFIWSR | 0.163 ± 0.77
160 | RVCMLLYCQVKVGTVN | 2.3 ± 0.11
161 | IDKSVGLVHKTHYWFQPWYK | 0.445 ± 0.43
162 | TRQNMFGIHHPWYNRRIS | -0.458 ± 0.42
163 | FFNDPA | -0.311 ± 0.47
164 | QLRNLFHFYTGITDSRFLLH | 1.93 ± 0.52
165 | LVFWRLCERHRWLRGFESA | -1.06 ± 1.5
166 | GRNTGFFHFLWLFRYVTLVM | -1.58 ± 1.7
167 | VVQGVTCSLIMYSTRNCLFR | -0.444 ± 1.6
168 | MSYCFF | 0.022 ± 0.55
169 | NCAFVAS | -0.019 ± 0.34
170 | FVHVYLERDRPNLTPFI | 0.084 ± 0.33
171 | VVTRWLASNNDGGIESLLIK | 0.132 ± 0.33
172 | SFSRFVVMMKGIRAGKSSHT | 0.156 ± 0.72
173 | LCAFMSYLSSIFSRYNCFYV | 0.268 ± 0.19
174 | YVPALYRVSGLCYLLTNHEF | 0.557 ± 0.18
175 | GLTKYV | -0.462 ± 0.28
